Patent publication US20240425603A1 (Janssen / Centocor, published 2024)
“And” between values parts separate entries of the source, which are not always exact repeats. Identical values can stand only once.

Tests used:
[1] = biological target: T1, cynomolgus monkey VEGFR1, over-expressed on HEK293 cells (cynomolgus monkey); assay: flow cytometry, 10 nM antibody, HEK cells over-expressing cyno VEGFR1
T1 construct: whole, on cells; also called HEK/ cyno VEGFR1; cynoVEGFR1
Description: Parental CHO-K1 cells, CHO-K1 cells stably expressing human VEGFR1, Ba/F3 parental, and Ba/F3 cells stably expressing murine VEGFR1 were stained for 10 minutes at 4° C. with either no stain, CSFE, CTV, or CTV+CSFE, respectively. Cells were subsequently washed with media containing heat inactivated FBS, collected by centrifugation, combined, resuspended in stain buffer, and plated (95 μL/well; 200,000 of each cell type per well). Antibody samples were added ([…]) to a final concentration of 10 nM and incubated for 60 min at 4° C. protected from light. Cells were washed twice with 150 μL/well stain buffer. AlexaFluor647-conjugated anti-human IgG1 secondary antibody was added (100 μL/well) and incubated for 30 minutes at 4° C. protected from light. Cells were washed twice with 150 μL of stain buffer, ultimately resuspended in 30 μL of running buffer and read on an iQue flow cytometer. This single concentration assay was used as a quick confirmation of binding to human and mouse VEGFR1 on cells. A similar assay was performed to confirm binding of candidate antibodies to HEK293 cells stably over-expressing cyno VEGFR1 at a single concentration of 10 nM.

His tagged cyno VEGFR1 = His tagged cyno VEGFR1 (cynomolgus monkey, UniProt A0A2K5VAF2 27-758); assay: MSD ECL competition on plate-bound His-tagged cyno VEGFR1; competitor biotin human VEGFA165 (0.2 nM)
Outline: (§1)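 IC50 and maximal percent inhibition come from electro-chemiluminescence readings of bound ligand, detected with Sulfo-tagged streptavidin on an MSD SECTOR S 600 imager. Receptor (human or mouse VEGFR1-Fc, or His-tagged cyno VEGFR1, 0.5 ug/ml) was captured for 1 hour at room temperature on Protein A/G- or anti-His mAb-coated MSD 384 plates blocked with Blocker A. Half-log antibody dilutions were pre-incubated for 30 minutes before biotinylated VEGFA (0.2 nM) or PlGF (2 nM) was added.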

[2] = biological target: T2, human VEGFR2, over-expressed on HEK293 cells (human, UniProt P35968 20-1356); assay: FACS cell binding (MFI) on HEK cells over-expressing human VEGFR2; expanded clone supernatant per paragraph 492, concentration not given
T2 construct: whole, on cells; also called huVEGFR2; hVEGFR2
Outline: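 Chicken-derived antibody clones, expressed as scFv-Fc (human IgG1) by transient transfection, were tested as culture supernatants. Flow cytometry measured their binding to engineered cells over-expressing each receptor: mouse VEGFR1 and human VEGFR2 on HEK cells, human VEGFR3 on K562 cells. Values are given as mean fluorescence intensity.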

[3] = biological target: T3, Recombinant mouse VEGFR1-Fc (R&D Systems) (mouse, UniProt P35969 27-759, limits assumed); assay: MSD ECL competition on plate-bound mouse VEGFR1-Fc; competitor biotin mouse VEGFA164 (0.2 nM)
T3 construct: bought; not shown: Fc part of the bought fusion, not described
T3 sequence (looked up): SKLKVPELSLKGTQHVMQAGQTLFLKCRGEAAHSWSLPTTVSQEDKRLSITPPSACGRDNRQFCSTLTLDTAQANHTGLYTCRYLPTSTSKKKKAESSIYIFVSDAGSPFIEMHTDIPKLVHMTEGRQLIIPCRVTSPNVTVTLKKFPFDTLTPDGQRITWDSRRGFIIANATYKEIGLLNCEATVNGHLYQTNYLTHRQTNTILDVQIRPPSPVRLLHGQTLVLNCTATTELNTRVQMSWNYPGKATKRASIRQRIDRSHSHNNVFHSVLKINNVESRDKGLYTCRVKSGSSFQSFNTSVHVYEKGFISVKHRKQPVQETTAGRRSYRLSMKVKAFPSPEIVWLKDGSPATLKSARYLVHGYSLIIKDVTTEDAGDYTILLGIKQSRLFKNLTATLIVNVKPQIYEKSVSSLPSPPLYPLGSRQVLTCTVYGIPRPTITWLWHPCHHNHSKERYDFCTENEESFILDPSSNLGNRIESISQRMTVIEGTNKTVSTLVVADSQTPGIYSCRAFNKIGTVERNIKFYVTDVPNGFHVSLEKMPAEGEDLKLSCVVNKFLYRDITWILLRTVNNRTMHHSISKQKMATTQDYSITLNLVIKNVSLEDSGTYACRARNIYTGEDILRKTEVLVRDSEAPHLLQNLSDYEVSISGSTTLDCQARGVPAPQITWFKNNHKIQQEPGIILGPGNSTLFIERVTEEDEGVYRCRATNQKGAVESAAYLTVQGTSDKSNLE
Outline: as §1

[4] = biological target: T3, Recombinant mouse VEGFR1-Fc (R&D …); assay: MSD ECL competition on plate-bound mouse VEGFR1-Fc; competitor biotin PlGF (2 nM)
Outline: as §1

[5] = biological target: T4, mouse VEGFR1 (soluble antigen of the KinExA and SPR affinity assays) (mouse, UniProt P35969 23-759, limits assumed); assay: SPR
T4 sequence (looked up): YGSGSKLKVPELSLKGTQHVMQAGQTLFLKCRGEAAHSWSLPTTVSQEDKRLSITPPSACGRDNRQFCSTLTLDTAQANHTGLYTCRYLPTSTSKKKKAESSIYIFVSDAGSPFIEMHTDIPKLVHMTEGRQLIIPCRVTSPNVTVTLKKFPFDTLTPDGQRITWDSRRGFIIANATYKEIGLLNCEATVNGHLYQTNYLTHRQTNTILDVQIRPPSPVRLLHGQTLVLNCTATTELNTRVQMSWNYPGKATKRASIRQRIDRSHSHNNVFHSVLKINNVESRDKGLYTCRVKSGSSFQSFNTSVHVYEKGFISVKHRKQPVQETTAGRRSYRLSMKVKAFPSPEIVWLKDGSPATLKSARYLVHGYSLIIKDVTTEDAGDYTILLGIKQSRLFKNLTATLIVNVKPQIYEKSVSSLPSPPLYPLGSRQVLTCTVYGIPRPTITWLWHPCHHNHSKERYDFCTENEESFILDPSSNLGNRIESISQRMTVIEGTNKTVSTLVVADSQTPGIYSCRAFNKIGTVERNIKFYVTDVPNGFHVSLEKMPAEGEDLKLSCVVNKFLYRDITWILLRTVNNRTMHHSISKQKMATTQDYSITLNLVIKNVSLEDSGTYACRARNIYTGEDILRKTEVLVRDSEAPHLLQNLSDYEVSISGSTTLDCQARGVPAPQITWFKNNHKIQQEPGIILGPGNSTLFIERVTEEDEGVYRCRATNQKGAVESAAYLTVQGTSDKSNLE

T2 sequence (P35968 20-1356): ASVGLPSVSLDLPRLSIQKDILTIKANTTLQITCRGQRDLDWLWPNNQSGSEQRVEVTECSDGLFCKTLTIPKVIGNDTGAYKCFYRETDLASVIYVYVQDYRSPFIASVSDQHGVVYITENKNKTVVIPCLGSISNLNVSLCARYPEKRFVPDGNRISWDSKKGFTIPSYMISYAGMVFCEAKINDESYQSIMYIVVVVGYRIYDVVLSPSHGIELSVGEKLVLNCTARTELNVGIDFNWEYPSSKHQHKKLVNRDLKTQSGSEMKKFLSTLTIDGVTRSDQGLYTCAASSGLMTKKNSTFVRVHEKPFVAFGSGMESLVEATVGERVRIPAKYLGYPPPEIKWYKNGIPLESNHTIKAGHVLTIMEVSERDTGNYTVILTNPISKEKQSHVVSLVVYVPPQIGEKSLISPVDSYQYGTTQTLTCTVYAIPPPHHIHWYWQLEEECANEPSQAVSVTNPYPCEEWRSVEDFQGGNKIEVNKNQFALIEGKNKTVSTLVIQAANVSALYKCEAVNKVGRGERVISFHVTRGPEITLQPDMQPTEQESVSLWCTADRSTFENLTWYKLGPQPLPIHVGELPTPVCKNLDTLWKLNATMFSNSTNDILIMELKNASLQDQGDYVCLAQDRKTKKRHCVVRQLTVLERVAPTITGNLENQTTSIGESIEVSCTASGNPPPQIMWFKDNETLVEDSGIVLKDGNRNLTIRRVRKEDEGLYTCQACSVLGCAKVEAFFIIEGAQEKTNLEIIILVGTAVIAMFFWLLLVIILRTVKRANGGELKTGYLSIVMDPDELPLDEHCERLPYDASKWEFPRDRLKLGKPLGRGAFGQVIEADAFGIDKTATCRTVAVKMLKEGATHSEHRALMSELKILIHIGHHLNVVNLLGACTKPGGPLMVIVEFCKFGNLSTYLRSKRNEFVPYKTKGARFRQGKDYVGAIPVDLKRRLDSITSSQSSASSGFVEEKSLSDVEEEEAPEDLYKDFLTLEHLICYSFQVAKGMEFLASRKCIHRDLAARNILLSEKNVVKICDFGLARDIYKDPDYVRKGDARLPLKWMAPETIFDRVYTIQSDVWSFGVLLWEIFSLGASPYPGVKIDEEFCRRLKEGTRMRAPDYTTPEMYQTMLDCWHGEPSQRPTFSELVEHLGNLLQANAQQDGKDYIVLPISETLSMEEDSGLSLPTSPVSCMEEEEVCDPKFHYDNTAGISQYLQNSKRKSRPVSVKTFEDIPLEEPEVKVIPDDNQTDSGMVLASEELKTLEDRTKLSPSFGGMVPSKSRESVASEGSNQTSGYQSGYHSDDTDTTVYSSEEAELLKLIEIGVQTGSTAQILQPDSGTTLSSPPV

B1: VGFB82 (antibody, human IgG1, lambda, L234A L235A, V domains shown)
VH: EVQLLESGGGLVQPGGSLRLSCEASGFDFSTYAMNWVRQAPGKGLEWVATINSEGTITSHAPAVKGRFTISRDNSKNTAYVQMNSLRAEDSAVYYCSSTTGTTHGMDVWGRGTTVTVSS
VL: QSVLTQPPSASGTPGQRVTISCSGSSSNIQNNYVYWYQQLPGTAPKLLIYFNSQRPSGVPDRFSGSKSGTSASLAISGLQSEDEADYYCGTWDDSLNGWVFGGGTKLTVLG
notes: human IgG1 (L234A/L235A/D265S)
[1]
  Geomean over-expressing/Geomean parental (Fold Signal/Background): 3.3 fold
His tagged cyno VEGFR1
  IC50: 0.081 nM
  Max % Inh.: 99%
[2]
  binding result: no binding
[3]
  IC50: 0.04 nM
  Max % Inh.: 99.8%
[4]
  IC50: 0.221 nM
  Max % Inh.: 100%
[5]
  Kd: 0.01 nM

B2: VGFB54 (antibody, human IgG1, lambda, L234A L235A, V domains shown)
VH: EVQLLESGGGSVQPGGSLRLSCTASGFNFEDYGMNWVRQAPGKGLDWVSSINRNGDISTYHVDSVKGRFTISRDNSKNTLYLQMNSLRAEDTAIYYCTKNHDYHGMDVWGQGTTVTVSS
VL: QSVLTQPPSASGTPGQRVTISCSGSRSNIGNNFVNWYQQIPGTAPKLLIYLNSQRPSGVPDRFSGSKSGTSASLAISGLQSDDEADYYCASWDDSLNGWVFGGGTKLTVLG
notes: human IgG1 (L234A/L235A/D265S), lambda, 2H:2L; from OmniChicken
[1]
  Geomean over-expressing/Geomean parental (Fold Signal/Background): 4.4 fold
His tagged cyno VEGFR1
  IC50: 0.089 nM
  Max % Inh.: 98.6%
[2]
  binding result: no binding
[3]
  IC50: 0.026 nM
  Max % Inh.: 100%
[4]
  IC50: 0.24 nM
  Max % Inh.: 98.4%
[5]
  Kd: 5.3 nM

B3: VGFB71 (antibody, human IgG1, lambda, L234A L235A, V domains shown)
VH: EVQLLESGGGLVQPGGSLRLSCEASGFIFRDYNMNWVRQAPGKGLEWVSIITNDGSSTAYSDSVKGRFTISRDNSKNSLYLQMNSLRAEDTAIYYCVKVYYGMDDWGQGTTVTVSS
VL: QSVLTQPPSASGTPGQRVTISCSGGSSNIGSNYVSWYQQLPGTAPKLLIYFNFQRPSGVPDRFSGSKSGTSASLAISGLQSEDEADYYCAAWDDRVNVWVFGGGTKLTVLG
notes: as for B1
[1]
  Geomean over-expressing/Geomean parental (Fold Signal/Background): 3.8 fold

B4: VGFB78 (antibody, human IgG1, lambda, L234A L235A, V domains shown)
VH: EVQLLESGGGLVQPGGSLRLSCAASSFTFYNYDMTWVRQAPGKGLEWVAGIGTSGTDMYYADSVKGRFTISRDNSKNTLYLQMNSLRAEDTAIYYCAKDYYYYGMDVWGLGTTVTVSS
VL: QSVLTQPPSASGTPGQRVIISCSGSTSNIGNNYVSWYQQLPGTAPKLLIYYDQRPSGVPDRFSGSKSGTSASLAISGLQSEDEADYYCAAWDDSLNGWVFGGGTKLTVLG
notes: as for B1
[1]
  Geomean over-expressing/Geomean parental (Fold Signal/Background): 4.46 fold
His tagged cyno VEGFR1
  IC50: 0.134 nM
  Max % Inh.: 98.6%
[2]
  binding result: no binding
[3]
  IC50: 0.183 nM
  Max % Inh.: 101%
[4]
  IC50: 0.243 nM
  Max % Inh.: 100%
[5]
  Kd: 0.004 nM and < 0.006 nM
